Measurements: the supplement of paper PMC10724198
± gives the standard deviation of the averaged measurements.

Experiments:
Experiment in all cases: protein stability index of tFT-peptide fusion (C-terminal peptide) (PSI (0-1 scale)); higher = more stable (slower turnover)
Saccharomyces cerevisiae [1] = settings: temperature: 30 C
Protocol: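 MPS profiling in S. cerevisiae of the yeast C-terminome library: the last 12 aa of each annotated ORF are fused to the C-terminus of a sfGFP-mCherry timer, after a GGGS linker. Cells are FACS-sorted into 8 mCherry/sfGFP bins and deep-sequenced. PSI runs from 0 (unstable) to 1 (stable); wild type and das1Δ backgrounds, two technical replicates each.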

Saccharomyces cerevisiae [2] = settings: genetic background: wild type; temperature: 30 C
Saccharomyces cerevisiae [3] = system: Saccharomyces cerevisiae
Protocol: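 MPS profiling in S. cerevisiae of the tFT-X12 degron library: putative degron peptides plus stable controls, 12 aa, fused to the C-terminus of a sfGFP-mCherry timer. Cells are FACS-sorted into 8 mCherry/sfGFP bins and deep-sequenced. PSI runs from 0 (unstable) to 1 (stable). Backgrounds are wild type, das1Δ and doa10Δ at 30 °C, and wild type, das1Δ, cdc34-1 and cdc53-1 at 37 °C; 2-3 technical replicates each.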

[4] = genetic background: das1 deletion
[5] = genetic background: cdc34-1, temperature: 37 C
[6] = genetic background: cdc53-1, temperature: 37 C
[7] = genetic background: das1 deletion, temperature: 30 C
[8] = genetic background: das1 deletion, temperature: 37 C
[9] = genetic background: doa10 deletion, temperature: 30 C
[10] = genetic background: wild type, temperature: 30 C
[11] = genetic background: wild type, temperature: 37 C

Sequence | protein stability index (Saccharomyces cerevisiae [1]; [4]) | protein stability index (Saccharomyces cerevisiae [1]; genetic background: wild type) | protein stability index (Saccharomyces cerevisiae [2]) | protein stability index (Saccharomyces cerevisiae [3]; [5]) | protein stability index (Saccharomyces cerevisiae [3]; [6]) | protein stability index (Saccharomyces cerevisiae [3]; [7]) | protein stability index (Saccharomyces cerevisiae [3]; [8]) | protein stability index (Saccharomyces cerevisiae [3]; [9]) | protein stability index (Saccharomyces cerevisiae [3]; [10]) | protein stability index (Saccharomyces cerevisiae [3]; [11])
AAISFKEAARTD [HYP2 C-terminal 12 aa] | 0.725 ± 0.019 | 0.725 ± 0.07 |  |  |  |  |  |  |  | 
AAMLTSENAREI [RRP45 C-terminal 12 aa] | 0.707 ± 0.01 | 0.676 ± 0.035 |  |  |  |  |  |  |  | 
AARADRGANFRD [SPT16 C-terminal 12 aa] | 0.677 ± 0.022 | 0.726 ± 0.012 |  |  |  |  |  |  |  | 
AAVKLSQAKSKL [FOX2 C-terminal 12 aa] | 0.823 ± 0.019 | 0.752 ± 0.014 |  |  |  |  |  |  |  | 
ADDDIFVNGFLR [YHL002C-A C-terminal 12 aa] | 0.719 ± 0.02 | 0.7 ± 0.023 |  |  |  |  |  |  |  | 
ADMTKEFERESS [GLN1 C-terminal 12 aa] | 0.724 ± 0.018 | 0.701 ± 0.038 |  |  |  |  |  |  |  | 
AFKKAQAEKSKK [NOP12 C-terminal 12 aa] | 0.699 ± 0.054 | 0.73 ± 0.085 |  |  |  |  |  |  |  | 
AGAAWFFVKLLG [CCC1 C-terminal 12 aa] | 0.67 ± 0.017 | 0.476 ± 0.045 |  |  |  |  |  |  |  | 
AGHSNTLQVSTV [CDC19 C-terminal 12 aa] | 0.705 ± 0.0082 | 0.687 ± 0.014 |  |  |  |  |  |  |  | 
AILREVQFEVFR [NTA1 C-terminal 12 aa] | 0.699 ± 0.019 | 0.7068 ± 0.00076 |  |  |  |  |  |  |  | 
AIRRGLTKKNEK [GDE1 C-terminal 12 aa] | 0.72 ± 0.013 | 0.65687 ± 0.00059 |  |  |  |  |  |  |  | 
AIYPVLSEFRKM [SPT15 C-terminal 12 aa] | 0.701 ± 0.0082 | 0.706 ± 0.074 |  |  |  |  |  |  |  | 
AKEESSDSENET [CDC123 C-terminal 12 aa] | 0.6497 ± 0.004 | 0.703 ± 0.091 |  |  |  |  |  |  |  | 
AKEWDLEDPKSM [TAF9 C-terminal 12 aa] | 0.7024 ± 0.0067 | 0.726 ± 0.057 |  |  |  |  |  |  |  | 
AKSEDISCVLII [YPL238C C-terminal 12 aa] | 0.711 ± 0.025 | 0.646 ± 0.022 |  |  |  |  |  |  |  | 
AKYALLEVLKVS [YOR102W C-terminal 12 aa] | 0.581 ± 0.0095 | 0.187 ± 0.017 |  |  |  |  |  |  |  | 
AKYSKKKNNKNK [DEG1 C-terminal 12 aa] | 0.689 ± 0.043 | 0.668 ± 0.021 |  |  |  |  |  |  |  | 
ALCICCTMDMLF [YBR016W C-terminal 12 aa] | 0.6355 ± 0.0054 | 0.645 ± 0.048 |  |  |  |  |  |  |  | 
ALDAELDAYMKG [YRA2 C-terminal 12 aa] | 0.67911 ± 5.2e-05 | 0.7 ± 0.0058 |  |  |  |  |  |  |  | 
ALDAVDDAIILD [GET1 C-terminal 12 aa] | 0.716 ± 0.0098 | 0.659 ± 0.021 |  |  |  |  |  |  |  | 
ALLDPSDTLNFM [RDR1 C-terminal 12 aa] | 0.697 ± 0.024 | 0.704 ± 0.055 |  |  |  |  |  |  |  | 
ALNDIAKASYIY [CTK3 C-terminal 12 aa] | 0.677 ± 0.034 | 0.648 ± 0.016 |  |  |  |  |  |  |  | 
ALNTYSSGFEIA [GID10 C-terminal 12 aa] | 0.661 ± 0.0013 | 0.676 ± 0.02 |  |  |  |  |  |  |  | 
ALSADGIYTIAN [PAU5 C-terminal 12 aa] | 0.71 ± 0.0096 | 0.6966 ± 0.0031 |  |  |  |  |  |  |  | 

Sequence | protein stability index (Saccharomyces cerevisiae [1]; [4]) | protein stability index (Saccharomyces cerevisiae [1]; genetic background: wild type) | protein stability index (Saccharomyces cerevisiae [2]) | protein stability index (Saccharomyces cerevisiae [3]; [5]) | protein stability index (Saccharomyces cerevisiae [3]; [6]) | protein stability index (Saccharomyces cerevisiae [3]; [7]) | protein stability index (Saccharomyces cerevisiae [3]; [8]) | protein stability index (Saccharomyces cerevisiae [3]; [9]) | protein stability index (Saccharomyces cerevisiae [3]; [10]) | protein stability index (Saccharomyces cerevisiae [3]; [11])
ALVGIFVLAFFN [HPF1 C-terminal 12 aa] | 0.29 ± 0.043 | 0.251 ± 0.0084 |  |  |  |  |  |  |  | 
AMFNDIWKNANE [UPS3 C-terminal 12 aa] | 0.7263 ± 0.0062 | 0.711 ± 0.015 |  |  |  |  |  |  |  | 
VVLAFFFWFFVG |  |  | 0.365 ± 0.016 | 0.359 ± 0.04 | 0.518 ± 0.028 | 0.383 ± 0.034 | 0.507 ± 0.011 | 0.25 ± 0.0047 | 0.265 ± 0.038 | 0.362 ± 0.01
VVLRCGCLVFIN |  |  | 0.134 ± 0.051 | 0.419 ± 0.027 | 0.5767 ± 0.0053 | 0.398 ± 0.023 | 0.6443 ± 0.0057 | 0.0928 ± 0.0026 | 0.105 ± 0.017 | 0.0809 ± 0.0089
VVRMRPRLFSLY |  |  | 0.3429 ± 0.0022 | 0.807 ± 0.04 | 0.8659 ± 0.0019 | 0.687 ± 0.047 | 0.816 ± 0.025 | 0.186 ± 0.011 | 0.208 ± 0.0086 | 0.354 ± 0.033
VVTFCCARVTKI |  |  | 0.522 ± 0.043 | 0.665 ± 0.048 | 0.6997 ± 0.0057 | 0.622 ± 0.038 | 0.665 ± 0.01 | 0.585 ± 0.026 | 0.571 ± 0.025 | 0.651 ± 0.021
VVTFLCPLVGHV |  |  | 0.478 ± 0.019 | 0.527 ± 0.023 | 0.501 ± 0.0074 | 0.372 ± 0.029 | 0.546 ± 0.012 | 0.341 ± 0.017 | 0.381 ± 0.013 | 0.507 ± 0.028
VVWFCGFFFVMV |  |  | 0.399 ± 0.032 | 0.386 ± 0.0054 | 0.449 ± 0.029 | 0.356 ± 0.036 | 0.509 ± 0.016 | 0.365 ± 0.031 | 0.325 ± 0.03 | 0.465 ± 0.012
VWCVFHVWSGRL |  |  | 0.494 ± 0.029 | 0.49 ± 0.035 | 0.585 ± 0.016 | 0.42 ± 0.023 | 0.6175 ± 0.0012 | 0.38 ± 0.007 | 0.409 ± 0.018 | 0.58 ± 0.012
VWFVFVCAVCVL |  |  | 0.273 ± 0.0097 | 0.191 ± 0.029 | 0.298 ± 0.015 | 0.205 ± 0.012 | 0.3464 ± 0.003 | 0.138 ± 0.033 | 0.163 ± 0.023 | 0.271 ± 0.012
VWGLGWLVVGVG |  |  | 0.221 ± 0.011 | 0.179 ± 0.0033 | 0.218 ± 0.029 | 0.185 ± 0.023 | 0.284 ± 0.012 | 0.165 ± 0.0044 | 0.179 ± 0.018 | 0.267 ± 0.0082
VWPLAFFLRFFI |  |  | 0.288 ± 0.014 | 0.547 ± 0.063 | 0.6021 ± 0.0019 | 0.529 ± 0.017 | 0.682 ± 0.017 | 0.247 ± 0.015 | 0.233 ± 0.013 | 0.3623 ± 0.0036
VWSSSYVPLGVY |  |  | 0.398 ± 0.044 | 0.319 ± 0.015 | 0.326 ± 0.066 | 0.275 ± 0.044 | 0.443 ± 0.0067 | 0.231 ± 0.015 | 0.271 ± 0.033 | 0.384 ± 0.013
VWWTLWRVHMLG |  |  | 0.243 ± 0.024 | 0.583 ± 0.028 | 0.644 ± 0.0072 | 0.592 ± 0.018 | 0.7151 ± 0.0031 | 0.106 ± 0.03 | 0.142 ± 0.021 | 0.218 ± 0.026
VYCLFLPLGVAF |  |  | 0.27 ± 0.027 | 0.115 ± 0.038 | 0.175 ± 0.072 | 0.184 ± 0.02 | 0.248 ± 0.0082 | 0.146 ± 0.016 | 0.171 ± 0.022 | 0.207 ± 0.026
VYCLVLFFSQWC |  |  | 0.452 ± 0.011 | 0.42 ± 0.03 | 0.484 ± 0.011 | 0.365 ± 0.025 | 0.543 ± 0.016 | 0.353 ± 0.013 | 0.351 ± 0.016 | 0.509 ± 0.013
VYFPRLLVRVSW |  |  | 0.407 ± 0.095 | 0.4489 ± 0.0015 | 0.472 ± 0.017 | 0.392 ± 0.029 | 0.508 ± 0.0082 | 0.436 ± 0.0082 | 0.377 ± 0.043 | 0.4787 ± 0.00097
WAIMGLIIFCLF |  |  | 0.329 ± 0.022 | 0.309 ± 0.0083 | 0.363 ± 0.031 | 0.3 ± 0.035 | 0.438 ± 0.015 | 0.222 ± 0.0086 | 0.244 ± 0.022 | 0.353 ± 0.012
WGEAGRPAGRGA |  |  | 0.688 ± 0.039 | 0.703 ± 0.032 | 0.758 ± 0.026 | 0.631 ± 0.007 | 0.745 ± 0.018 | 0.644 ± 0.017 | 0.6506 ± 0.004 | 0.73024 ± 1.3e-05
WGFLSVVCLSGV |  |  | 0.458 ± 0.038 | 0.501 ± 0.029 | 0.5235 ± 0.0052 | 0.4 ± 0.024 | 0.533 ± 0.015 | 0.384 ± 0.035 | 0.398 ± 0.013 | 0.522 ± 0.0023
WGLGWRGALVAV |  |  | 0.385 ± 0.062 | 0.417 ± 0.0089 | 0.42 ± 0.017 | 0.321 ± 0.033 | 0.4845 ± 0.0034 | 0.269 ± 0.0084 | 0.324 ± 0.027 | 0.454 ± 0.0095
WGLPVGVESSGG |  |  | 0.732 ± 0.03 | 0.712 ± 0.03 | 0.761 ± 0.021 | 0.648 ± 0.028 | 0.761 ± 0.0095 | 0.64 ± 0.012 | 0.661 ± 0.032 | 0.733 ± 0.015
WGRFFWGCGVWV |  |  | 0.55 ± 0.074 | 0.631 ± 0.07 | 0.7128 ± 0.0035 | 0.6 ± 0.016 | 0.725 ± 0.0095 | 0.438 ± 0.016 | 0.463 ± 0.032 | 0.644 ± 0.031
